Series [1] deals with T1, BaDH (benzyl alcohol dehydrogenase) (Aromatoleum aromaticum, UniProt Q5P459).
T1 construct: gene adh; full-length, C-terminal Twin-Strep-tag kept, expressed in E. coli BL21(DE3), Strep-tactin purified; Zn (catalytic) and Zn/Fe (structural)
T1 sequence (Q5P459 1-362): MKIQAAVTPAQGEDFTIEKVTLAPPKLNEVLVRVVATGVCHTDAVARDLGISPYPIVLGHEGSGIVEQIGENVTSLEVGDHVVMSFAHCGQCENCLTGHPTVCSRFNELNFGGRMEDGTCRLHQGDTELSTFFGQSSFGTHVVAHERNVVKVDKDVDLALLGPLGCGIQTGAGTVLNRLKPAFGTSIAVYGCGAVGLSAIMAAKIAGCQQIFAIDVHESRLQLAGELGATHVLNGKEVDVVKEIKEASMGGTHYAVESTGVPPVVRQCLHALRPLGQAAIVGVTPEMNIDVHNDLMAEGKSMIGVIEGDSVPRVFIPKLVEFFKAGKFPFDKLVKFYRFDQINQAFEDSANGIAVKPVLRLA
The series is described as follows: photometric NADH formation, […] nm; Michaelis-Menten with substrate inhibition fit. The class given is biochemical. Conditions: substrate inhibition constant; NAD+, pH 8.0, 30 °C.

Substrate in series [2]: NC(=O)C1=CN([C@@H]2O[C@H](COP(=O)(O)OP(=O)(O)OC[C@H]3O[C@@H](n4cnc5c(N)ncnc54)[C@H](O)[C@@H]3O)[C@@H](O)[C@H]2O)C=CC1
Description: purified protein. The class given is biochemical, Aromatoleum aromaticum. Conditions: apparent, fixed benzaldehyde, pH 7.0, 30 °C, extrapolated, saturation not reached, probably underestimated per authors (text: no reliable constants), varied: cofactor.

Substrate in series [3]: OCc1ccccc1
Description: purified protein. As to conditions: apparent, oxidation with NAD+, pH 8.0, 30 °C, substrate inhibition, kcat called overestimated by authors. It is filed as biochemical, Aromatoleum aromaticum.

Substrate in series [4]: NC(=O)C1=CN([C@@H]2O[C@H](COP(=O)(O)OP(=O)(O)OC[C@H]3O[C@@H](n4cnc5c(N)ncnc54)[C@H](OP(=O)(O)O)[C@@H]3O)[C@@H](O)[C@H]2O)C=CC1
The series is described as follows: photometric NADPH consumption; Hill fit with substrate inhibition. The class given is biochemical, Aromatoleum aromaticum. Conditions: apparent, fixed benzaldehyde, pH 5.5, 30 °C, cooperative, Hill n 1.38, Kis constrained to Km, kcat called overestimated by authors, varied: cofactor. The source says:
photometric NADPH consumption; Hill fit with substrate inhibition on BaDH (benzyl alcohol dehydrogenase)

Substrate in series [5]: NC(=O)c1ccc[n+]([C@@H]2O[C@H](COP(=O)(O)OP(=O)(O)OC[C@H]3O[C@@H](n4cnc5c(N)ncnc54)[C@H](O)[C@@H]3O)[C@@H](O)[C@H]2O)c1
Description: photometric NADH formation; Michaelis-Menten fit. Conditions: apparent, fixed benzyl alcohol, pH 8.0, 30 °C, varied: cofactor. The class given is biochemical, Aromatoleum aromaticum. From the text: photometric NADH formation; Michaelis-Menten fit on BaDH (benzyl alcohol dehydrogenase)

Substrate in series [6]: NC(=O)c1ccc[n+]([C@@H]2O[C@H](COP(=O)(O)OP(=O)(O)OC[C@H]3O[C@@H](n4cnc5c(N)ncnc54)[C@H](OP(=O)(O)O)[C@@H]3O)[C@@H](O)[C@H]2O)c1
Description: photometric NADPH formation; Hill fit with substrate inhibition. It is filed as biochemical, Aromatoleum aromaticum. As to conditions: apparent, fixed benzyl alcohol, pH 6.5, 30 °C, cooperative, Hill n 2.44, Kis constrained to Km, kcat called overestimated by authors, varied: cofactor. The source says:
photometric NADPH formation; Hill fit with substrate inhibition on BaDH (benzyl alcohol dehydrogenase)

Substrate in series [7]: O=Cc1ccccc1
Description: photometric NADH consumption; Michaelis-Menten with substrate inhibition fit. Conditions: apparent, reduction with NADH, pH 7.0, 30 °C, Kis constrained to >= Km, kcat called overestimated by authors. It is filed as biochemical, Aromatoleum aromaticum. From the text:
photometric NADH consumption; Michaelis-Menten with substrate inhibition fit on BaDH (benzyl alcohol dehydrogenase)

Broadly, the Km is the concentration of substrate that gives half-maximal velocity. What is called Vmax is the top rate of the reaction or transport when substrate is in excess. Usually kcat stands for the maximal rate divided by the concentration of active sites. Usually kcat/Km stands for the turnover number divided by the Michaelis constant.

Turning to `OCc1ccccc1` [BAlc, benzyl alcohol], in series [1], the “Kis” value was 4.37 mM.

B1: BaDH (benzyl alcohol dehydrogenase) (Aromatoleum aromaticum EbN1) (protein)
chain: MKIQAAVTPAQGEDFTIEKVTLAPPKLNEVLVRVVATGVCHTDAVARDLGISPYPIVLGHEGSGIVEQIGENVTSLEVGDHVVMSFAHCGQCENCLTGHPTVCSRFNELNFGGRMEDGTCRLHQGDTELSTFFGQSSFGTHVVAHERNVVKVDKDVDLALLGPLGCGIQTGAGTVLNRLKPAFGTSIAVYGCGAVGLSAIMAAKIAGCQQIFAIDVHESRLQLAGELGATHVLNGKEVDVVKEIKEASMGGTHYAVESTGVPPVVRQCLHALRPLGQAAIVGVTPEMNIDVHNDLMAEGKSMIGVIEGDSVPRVFIPKLVEFFKAGKFPFDKLVKFYRFDQINQAFEDSANGIAVKPVLRLA
notes: full-length, C-terminal Twin-Strep-tag kept, expressed in E. coli BL21(DE3), Strep-tactin purified; Zn (catalytic) and Zn/Fe (structural)
In the case of B1, the Km in the series “purified protein [2]” was 3690 µM; in the series “purified protein [3]” it was 3620 µM; in series [5], 1670 µM; in series [7], 1780 µM. The Vmax in “purified protein [2]” was 320 µmol/min/mg; in “purified protein [3]”, 410 µmol/min/mg; in series [4], 159 µmol/min/mg; in series [5] it was 84.2 µmol/min/mg; in series [6], 54.1 µmol/min/mg; in series [7], 345 µmol/min/mg. In addition, the kcat is 222 s⁻¹ in “purified protein [2]”; 693 s⁻¹ in “purified protein [3]”; 110 s⁻¹ in series [4]; 58.4 s⁻¹ in series [5]; 37.5 s⁻¹ in series [6]; 239 s⁻¹ in series [7]. The kcat/Km in “purified protein [2]” was 60000 M⁻¹ s⁻¹; in the series “purified protein [3]”, 191000 M⁻¹ s⁻¹; in series [4] it was 32000 M⁻¹ s⁻¹; in series [5], 35000 M⁻¹ s⁻¹; in series [6], 16000 M⁻¹ s⁻¹; in series [7], 134000 M⁻¹ s⁻¹. Moreover, the K0.5 in series [4] was 3.42 mM; in series [6], 2.39 mM.

These data come from publication PMC11231019, “A pH-dependent shift of redox cofactor specificity in a benzyl alcohol dehydrogenase of aromatoleum aromaticum EbN1” (Applied Microbiology and Biotechnology, 2024).
